From US20120071394A1 (ALLIGATOR BIOSCIENCE, published 2012)

Target: T1, Wild-type CHIPS1-121 (Chemotaxis Inhibitory Protein of Staphylococcus aureus) (Staphylococcus aureus, UniProt A6QIG7 29-149)
T1 construct: His tag cleaved off with enterokinase; also called CHIPSWT
Experiment: flow cytometry of gated blood neutrophils after iv CHIPS, stained with rabbit anti-CHIPS IgG and FITC goat anti-rabbit; the staining does not separate C5aR-bound from FPR-bound CHIPS

Row | Binder | binding result
1 | human C5a receptor (C5aR) (receptor, whole, on cells; also called CD88) MDSFNYTTPDYGHYDDKDTLDLNTPVDKTSNTLRVPDILALVIFAVVFLVGVLGNALVVWVTAFEAKRTINAIWFLNLAVADFLSCLALPILFTSIVQHHHWPFGGAACSILPSLILLNMYASILLLATISADRFLLVFKPIWCQNFRGAGLAWIACAVAWGLALLLTIPSFLYRVVREEYFPPKVLCGVDYSHDKRRERAVAIVRLVLGFLWPLLTLTICYTFILLRTWSRRATRSTKTLKVVVAVVASFFIFWLPYQVTGIMMSFLEPSSPTFLLLKKLDSLCVSFAYINCCINPIIYVVAGQGFQGRLRKSLPSLLRNVLTEESVVRESKSFTRSTVDTMAQKTQAV | binds
2 | formylated peptide receptor (FPR) (receptor, whole, on cells) METNSSLPTNISGGTPAVSAGYLFLDIITYLVFAVTFVLGVLGNGLVIWVAGFRMTHTVTTISYLNLAVADFCFTSTLPFFMVRKAMGGHWPFGWFLCKFVFTIVDINLFGSVFLIALIALDRCVCVLHPVWTQNHRTVSLAKKVIIGPWVMALLLTLPVIIRVTTVPGKTGTVACTFNFSPWTNDPKERINVAVAMLTVRGIIRFIIGFSAPMSIVAVSYGLIATKIHKQGLIKSSRPLRVLSFVAAAFFLCWSPYQVVALIATVRIRELLQGMYKEIGIAVDVTSALAFFNSCLNPMLYVFMGQDFRERLIHALPASLERALTEDSTQTSDTATNSTLPSAEVELQAK | binds
